Assay results from paper PMC3236591, “Central domain deletions affect the SAXS solution structure and function of Yeast Hsp40 proteins Sis1 and Ydj1” (BMC Structural Biology, 2011).
Values belong to the binder of their own block, whether it stands above or below them.

What was measured:
heated luciferase = molecular target: T1, heated luciferase (UniProt P08659 1-550 = luciferase); test: not stated; binding of Hsp40s to heated denatured luciferase as previously described (refs 15, 21); Sis1 binding set as standard (100%)
T1 construct: luciferase, heat-denatured, used as client protein; Heat-denatured in the assay; Firefly luciferase is surmised; also called heated denaturated luciferase; denatured luciferase
T1 sequence (P08659 whole entry): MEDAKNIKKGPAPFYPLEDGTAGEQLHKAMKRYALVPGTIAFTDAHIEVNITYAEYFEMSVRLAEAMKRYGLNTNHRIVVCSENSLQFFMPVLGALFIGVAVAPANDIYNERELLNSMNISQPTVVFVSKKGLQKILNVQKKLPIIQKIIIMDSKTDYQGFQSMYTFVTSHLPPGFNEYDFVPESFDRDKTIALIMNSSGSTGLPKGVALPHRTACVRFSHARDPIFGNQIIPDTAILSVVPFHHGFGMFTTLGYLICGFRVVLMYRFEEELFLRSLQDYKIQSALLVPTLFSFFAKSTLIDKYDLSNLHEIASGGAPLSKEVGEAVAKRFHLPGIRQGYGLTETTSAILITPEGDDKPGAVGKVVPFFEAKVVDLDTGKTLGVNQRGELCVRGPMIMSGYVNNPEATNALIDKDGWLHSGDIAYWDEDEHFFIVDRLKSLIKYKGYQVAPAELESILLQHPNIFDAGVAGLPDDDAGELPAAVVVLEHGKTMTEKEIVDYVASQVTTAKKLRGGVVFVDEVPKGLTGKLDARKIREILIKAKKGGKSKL

[1] = molecular target: the molecule itself; test: SAXS; 2.75 to 7.1 mg/mL protein in 25 mM Tris-HCl pH 7.5, 500 mM NaCl; molecular mass from I(0) against a BSA standard

B2: Sis1_Δ121-257 (natural protein, yeast, UniProt P25294 1-352, looked up)
chain: MVKETKLYDLLGVSPSANEQELKKGYRKAALKYHPDKPTGDTEKFKEISEAFEILNDPQKREIYDQYGLEAARSGGPSFGPGGPGGAGGAGGFPGGAGGFSGGHAFSNEDAFNIFSQFFGHPNFKRDGDDLIYTLPLSFKESLLGFSKTIQTIDGRTLPLSRVQPVQPSQTSTYPGQGMPTPKNPSQRGNLIVKYKVDYPISLNDAQKRAIDENF
notes: Sis1, yeast Type II Hsp40 (352 residues), residues 121 to 257 (G/M and CTDI) deleted; also called Sis1 G/M plus CTDI deletion mutant; source: E. coli BL21(DE3)pLys, purified (Macro-prep High S cation exchange, hydroxyapatite)
- percent of Sis1 binding to heated luciferase (heated luciferase): ~40%
- stoichiometry N [1]: 2

B4: Sis1 (natural protein, yeast, UniProt P25294 1-352, looked up)
chain: MVKETKLYDLLGVSPSANEQELKKGYRKAALKYHPDKPTGDTEKFKEISEAFEILNDPQKREIYDQYGLEAARSGGPSFGPGGPGGAGGAGGFPGGAGGFSGGHAFSNEDAFNIFSQFFGGSSPFGGADDSGFSFSSYPSGGGAGMGGMPGGMGGMHGGMGGMPGGFRSASSSPTYPEEETVQVNLPVSLEDLFVGKKKSFKIGRKGPHGASEKTQIDIQLKPGWKAGTKITYKNQGDYNPQTGRRKTLQFVIQEKSHPNFKRDGDDLIYTLPLSFKESLLGFSKTIQTIDGRTLPLSRVQPVQPSQTSTYPGQGMPTPKNPSQRGNLIVKYKVDYPISLNDAQKRAIDENF
notes: Sis1, yeast Type II Hsp40, 352 residues (J-domain, G/F, G/M, CTDI, CTDII); also called Type II Hsp40; full length Sis1 protein; source: recombinant, purified (Macro-prep High S cation exchange, hydroxyapatite)
- stoichiometry N [1]: 2

Further lines, with some results ahead:

- percent of Sis1 binding to heated luciferase (heated luciferase): ~40%
B1: Ydj1_Δ106-255 (natural protein)
chain: not shown
notes: Ydj1, yeast Type I Hsp40 (409 residues), residues 106 to 255 (ZFLR and CTDI) deleted; also called Ydj1 ZFLR plus CTDI deletion mutant; source: E. coli BL21(DE3), purified (Macro-prep High Q anion exchange, hydroxyapatite, Superdex 200 SEC)
- stoichiometry N [1]: 2

- percent of Sis1 binding to heated luciferase (heated luciferase): ~60%
B3: Sis1_Δ124-174 (natural protein, yeast, UniProt P25294 1-352, looked up)
chain: MVKETKLYDLLGVSPSANEQELKKGYRKAALKYHPDKPTGDTEKFKEISEAFEILNDPQKREIYDQYGLEAARSGGPSFGPGGPGGAGGAGGFPGGAGGFSGGHAFSNEDAFNIFSQFFGGSSTYPEEETVQVNLPVSLEDLFVGKKKSFKIGRKGPHGASEKTQIDIQLKPGWKAGTKITYKNQGDYNPQTGRRKTLQFVIQEKSHPNFKRDGDDLIYTLPLSFKESLLGFSKTIQTIDGRTLPLSRVQPVQPSQTSTYPGQGMPTPKNPSQRGNLIVKYKVDYPISLNDAQKRAIDENF
notes: Sis1, yeast Type II Hsp40 (352 residues), residues 124 to 174 (G/M region) deleted; also called Sis1 G/M deletion mutant; source: E. coli BL21(DE3)pLys, purified (Macro-prep High S cation exchange, hydroxyapatite)
- stoichiometry N [1]: 2
